The text below walks through data of patent US7250488 (Kyowa Kirin, dated 2007).

The target of test [1] is T1, mouse β-catenin (mouse, UniProt Q02248 2-781).
T1 construct: mature; also called ^35S-labeled β-catenin
T1 sequence (looked up): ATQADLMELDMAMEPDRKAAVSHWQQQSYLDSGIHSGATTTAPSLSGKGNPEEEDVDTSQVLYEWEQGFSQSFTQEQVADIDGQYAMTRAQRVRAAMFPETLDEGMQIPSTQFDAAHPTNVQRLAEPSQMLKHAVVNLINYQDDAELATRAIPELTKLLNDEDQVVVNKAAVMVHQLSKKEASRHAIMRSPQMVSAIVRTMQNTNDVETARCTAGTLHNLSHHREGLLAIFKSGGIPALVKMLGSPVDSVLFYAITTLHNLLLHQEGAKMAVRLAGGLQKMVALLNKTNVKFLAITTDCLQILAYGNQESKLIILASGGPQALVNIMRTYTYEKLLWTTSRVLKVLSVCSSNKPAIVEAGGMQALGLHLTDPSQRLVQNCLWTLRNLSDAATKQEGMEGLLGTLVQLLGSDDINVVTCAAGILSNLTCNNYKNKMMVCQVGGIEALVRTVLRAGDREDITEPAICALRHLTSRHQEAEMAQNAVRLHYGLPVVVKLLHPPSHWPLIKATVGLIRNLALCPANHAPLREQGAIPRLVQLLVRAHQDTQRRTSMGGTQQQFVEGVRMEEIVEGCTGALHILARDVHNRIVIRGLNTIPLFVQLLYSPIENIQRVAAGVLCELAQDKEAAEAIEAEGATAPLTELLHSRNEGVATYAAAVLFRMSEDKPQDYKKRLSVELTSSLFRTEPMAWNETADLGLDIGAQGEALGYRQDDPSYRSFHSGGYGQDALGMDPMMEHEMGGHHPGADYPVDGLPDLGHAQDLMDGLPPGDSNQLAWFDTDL
Kind of test: immunoprecipitation with anti-ICAT antibody from mouse brain lysate, Western blotting with anti-β-catenin antibody. As to the method: In the experiment for the detection of ICAT with immunoprecipitation and Western blotting using mouse brain lysate in Example 6, immunoprecipitation was carried out with the anti-ICAT antibody, and then Western blotting was performed with the anti-β-catenin monoclonal antibody (Transduction Laboratory; animal used for the immunization is mouse) as a primary antibody for the detection. […] However, when, in this experiment, the anti-ICAT antibody, which had previously been reacted to GST/ICAT, was used in the immunoprecipitation, the band of β-catenin was not detected because of inhibition of immunoprecipitation.
(Immunoblotting shows a protein as a band on a membrane.)

Test [2] deals with T2, N-terminal portion of mouse β-catenin (residues 1 to 140), ^35S-labeled (mouse, UniProt Q02248 1-140).
T2 construct: range 1-140; Translated in vitro with ^35S-methionine
T2 sequence (looked up): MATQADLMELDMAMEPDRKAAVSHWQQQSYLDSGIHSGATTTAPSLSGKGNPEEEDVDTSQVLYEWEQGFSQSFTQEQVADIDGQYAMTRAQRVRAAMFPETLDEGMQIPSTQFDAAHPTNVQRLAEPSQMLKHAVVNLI
The test can be described thus: GST/ICAT pull-down of ^35S-labeled in vitro translated protein, autoradiography. As to the method: (§1) The GST/ICAT-expressing E. coli as well as control GST-expressing E. coli prepared in Example 3 were cultured to obtain the respective bacterial lysates. Glutathione-Sepharose 4B (Amersham-Pharmacia Biotech) was added to these bacterial lysates, and […] or GST was adsorbed on it to isolate it. The GST/ICAT- or GST-adsorbed glutathione-Sepharose 4B was reacted to the above-mentioned ^35S-labeled β-catenin in buffer A containing 0.1% Triton X-100 at 4° C. for 2 hours. After the glutathione-Sepharose 4B was washed well with buffer A and then SDS-PAGE sample buffer was added thereto to elute the bound protein to the sample buffer. The eluate was used as a sample in SDS-PAGE in which the gel concentration was 15% and then the gel was visualized by autoradiography. […] Accordingly, it has been verified that GST/ICAT directly binds to β-catenin in vitro and that the site responsible for the binding to β-catenin is located within the ICAT moiety of GST/ICAT.
(§2) The region of β-catenin responsible for the binding with ICAT was determined as follows. DNA fragments encoding the region of armadillo domain of mouse β-catenin (residues 141 to 664 in the amino acid sequence), N-terminal portion (residues 1 to 140 in the amino acid sequence), and C-terminal portion (residues 665 to 782 in the amino acid sequence) were amplified by PCR. […]

In test [3] the target is T3, C-terminal portion of mouse β-catenin (residues 665 to 782), ^35S-labeled (mouse, UniProt Q02248 665-781).
T3 construct: range 665-782; Translated in vitro with ^35S-methionine
T3 sequence (looked up): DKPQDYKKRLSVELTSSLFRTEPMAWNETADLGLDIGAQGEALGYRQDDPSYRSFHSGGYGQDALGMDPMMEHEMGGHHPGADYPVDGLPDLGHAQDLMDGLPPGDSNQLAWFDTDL
The test is described as above. As for the experimental part:
as §1, §2

Test [4] concerns the target T1, mouse β-catenin. The test can be described thus: GST fusion pull-down in vitro, as in Example 8. As for the experimental part: as §1, with “Analysis of Binding Between ICAT and β-catenin (1) Detection of the Direct Binding In Vitro The direct binding of ICAT to β-catenin was verified as follows. ^35S-labeled β-catenin was translated and synthesized from mouse β-catenin mRNA in vitro by using ^35S-labeled methionine TNT-reticulocyte lysate system (Promega). The GST/ICAT-expressing” for “The GST/ICAT-expressing”, “of GST/ICAT. […]” for “of GST/ICAT.”

The target of test [5] is T4, GAL4-β-catenin fusion protein (GAL4 BD fused with mβ-catenin arm, residues 141 to 664) (yeast; mouse, UniProt P04386 1-147; Q02248 141-664).
T4 construct: Two-hybrid bait expressed in yeast HF7C; also called bait for mβ-catenin arm
The test can be described thus: yeast two-hybrid, β-galactosidase activity. The source says:
Specifically, both mouse fetal cDNA library for the two-hybrid system and plasmid GAL4-β-catenin prepared in (1) were introduced in yeast *Saccharomyces cerevisiae* HF7C strain (Clontech). HF7C strain is a yeast strain that is tryptophan-, leucine-, and histidine-auxotrophic, and, on the chromosome, has as a reporter gene a gene involved in histidine biosynthesis, HIS3, which has been ligated downstream of GAL1 promoter to which GAL4 BD can bind, as well as has of *E. coli*-derived β-galactosidase gene lazZ ligated downstream of a nucleotide sequence where GAL4 BD can bind (Gene, 212, 197 (1998)). A transformant containing both plasmid GAL4-β-catenin and cDNA clone for protein capable of binding to mβ-catenin arm and expresses the respective fusion proteins, is non-auxotrophic for histidine and is positive in β-galactosidase activity, because GAL4 BD is placed adjacent to GAL4 AD due the binding between mβ-catenin arm and the binding protein, the transcriptions of HIS3 gene and lacZ gene, downstream of the nucleotide sequence to which GAL4 BD binds, are activated. Four clones were finally selected, as colonies positive in β-galactosidase activity from 2.3 ×10^7 transformants which were grown on a medium without any of leucine, histidine, and tryptophan.
Each of these expression plasmids for fusion proteins of GAL4 AD and ICAT mutants was introduced together with the bait plasmid GAL4-β-catenin for mβ-catenin arm into yeast HF7C strain in the same manner as in Example 1, and then the binding of each ICAT mutant with β-catenin was evaluated based on the presence of β-galactosidase activity in the transformants.

B1: mouse ICAT (inhibitor of β-catenin and TCF) (other)
chain: MNREGAPGKSPEEMYIQQKVRVLLMLRKMGSNLTASEEEFLRTYAGVVSSQLSQLPQHSIDQGAEDVVMAFSRSETEDRRQ
notes: Untagged full-length mouse ICAT (81 amino acids); It was tested expressed from pMKITneo in COS-7 and other animal cells, translated in vitro in reticulocyte lysate, and as the endogenous protein of mouse brain; also called 9-kDa protein
On to B1, for which the binding result in test [1] was “binds”.

B2: GST/ICAT (fusion protein between GST and ICAT) (other)
chain: MNREGAPGKSPEEMYIQQKVRVLLMLRKMGSNLTASEEEFLRTYAGVVSSQLSQLPQHSIDQGAEDVVMAFSRSETEDRRQ
notes: Mouse ICAT cDNA was subcloned between EcoRI/SalI of pGEX5X-1, so ICAT sits on the C-terminal side of GST; Expressed in E. coli; not shown: glutathione S-transferase (GST) as encoded by vector pGEX5X-1
With B2, the binding result in test [2] and in test [3] was “no binding” throughout.

B3: ICAT(E37-39A) expressed as a GST fusion protein (other)
chain: MNREGAPGKSPEEMYIQQKVRVLLMLRKMGSNLTASAAAFLRTYAGVVSSQLSQLPQHSIDQGAEDVVMAFSRSETEDRRQ
notes: Expressed in E. coli; not shown: glutathione S-transferase (GST); made in the same manner as GST/ICAT
With B3, the binding result in test [4] is given as “no binding”.

B4: ICAT(E37-39A), GAL4 AD fusion (other, not shown: large carriers)
chain: MNREGAPGKSPEEMYIQQKVRVLLMLRKMGSNLTASAAAFLRTYAGVVSSQLSQLPQHSIDQGAEDVVMAFSRSETEDRRQ
notes: The glutamic acid residues 37, 38 and 39 are converted to alanine; Used as a two-hybrid prey; also called (j) ICAT(E37-39A)
As for B4, in test [5], the binding result is listed as “no binding”.

B5: ICAT (42-81), GAL4 AD fusion (other, not shown: large carriers)
chain: RTYAGVVSSQLSQLPQHSIDQGAEDVVMAFSRSETEDRRQ
notes: Mouse ICAT deletion mutant used as a two-hybrid prey; also called (e) ICAT(42-81)
For B5, in test [5], the binding result was “no binding”.

B6: ICAT(21-81), GAL4 AD fusion (other, not shown: large carriers)
chain: RVLLMLRKMGSNLTASEEEFLRTYAGVVSSQLSQLPQHSIDQGAEDVVMAFSRSETEDRRQ
notes: Mouse ICAT deletion mutant used as a two-hybrid prey; also called (d) ICAT(21-81)
For the molecule B6, in test [5], the binding result is on record as “no binding”.

B7: ICAT (21-61), GAL4 AD fusion (other, not shown: large carriers)
chain: RVLLMLRKMGSNLTASEEEFLRTYAGVVSSQLSQLPQHSID
notes: Mouse ICAT deletion mutant used as a two-hybrid prey; also called (g) ICAT(21-61)
With B7, the binding result in test [5] is given as “no binding”.

B8: ICAT(1-41), GAL4 AD fusion (other, not shown: large carriers)
chain: MNREGAPGKSPEEMYIQQKVRVLLMLRKMGSNLTASEEEFL
notes: Mouse ICAT deletion mutant used as a two-hybrid prey; also called (b) ICAT(1-41)
B8: in test [5], the binding result is “no binding”.
